In patent US20210292422A1 (SURROZEN, published 2021):

T1: FZD5 (UniProt Q13467 28-150, limits assumed)
T1 construct: also called Frizzled 5
T1 sequence (looked up): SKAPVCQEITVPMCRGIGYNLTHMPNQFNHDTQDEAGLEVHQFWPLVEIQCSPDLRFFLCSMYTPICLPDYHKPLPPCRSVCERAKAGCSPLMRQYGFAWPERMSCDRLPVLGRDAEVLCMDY

T2: LRP6E1E2 (UniProt O75581 20-630)
T2 construct: domain: E1E2; also called LRP6 E1E2 domains
T2 sequence (looked up): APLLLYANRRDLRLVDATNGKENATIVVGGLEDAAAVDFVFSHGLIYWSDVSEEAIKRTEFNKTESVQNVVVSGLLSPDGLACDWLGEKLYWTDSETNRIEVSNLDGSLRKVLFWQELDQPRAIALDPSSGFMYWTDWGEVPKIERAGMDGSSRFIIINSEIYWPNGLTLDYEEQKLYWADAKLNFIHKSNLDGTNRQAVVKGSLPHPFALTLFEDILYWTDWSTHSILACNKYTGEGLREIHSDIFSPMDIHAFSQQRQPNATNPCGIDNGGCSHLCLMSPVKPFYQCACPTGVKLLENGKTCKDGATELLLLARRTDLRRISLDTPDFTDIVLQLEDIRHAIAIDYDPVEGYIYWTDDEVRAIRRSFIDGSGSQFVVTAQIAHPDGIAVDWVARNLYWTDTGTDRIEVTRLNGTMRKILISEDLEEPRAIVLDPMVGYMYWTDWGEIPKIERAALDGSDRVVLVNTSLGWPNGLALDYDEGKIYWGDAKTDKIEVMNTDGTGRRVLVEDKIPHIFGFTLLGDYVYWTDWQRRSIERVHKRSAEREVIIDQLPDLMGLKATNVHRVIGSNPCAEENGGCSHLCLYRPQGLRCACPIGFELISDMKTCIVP

B1: F1: antiFZD1, 2, 7, 5, 8 (18R5) scFv (scFv)
scFv: EVQLVESGGGLVQPGGSLRLSCAASGFTFSHYTLSWVRQAPGKGLEWVSVISGDGSYTYYADSVKGRFTISSDNSKNTLYLQMNSLRAEDTAVYYCARNFIKYVFANWGQGTLVTVSSGGGGSGGGGSGGGGSDIELTQPPSVSVAPGQTARISCSGDNIGSFYVHWYQQKPGQAPVLVIYDKSNRPSGIPERFSGSNSGNTATLTISGTQAEDEADYYCQSYANTLSLVFGGGTKLTVL
B2: F2: antiFZD1, 2, 7 (R2H1) scFv (scFv)
scFv: EVQLVESGGGLVQPGGSLRLSCAASGFNISSSYIHWVRQAPGKGLEWVAYIYSSYGSTYYADSVKGRFTISADTSKNTAYLQMNSLRAEDTAVYYCARASWYALDYWGQGTLVTVSSGSAASGSSGGSSSGADIQMTQSPSSLSASVGDRVTITCRASQSVSSAVAWYQQKPGKAPKLLIYSASSLYSGVPSRFSGSRSGTDFTLTISSLQPEDFATYYCQQYWYGVAPITFGQGTKVEIK
B3: F3: antiFZD5, 8 (2919) scFv (scFv)
scFv: EVQLVESGGGLVQPGGSLRLSCAASGFNISYSYIHWVRQAPGKGLEWVASIYSSSGSTSYADSVKGRFTISADTSKNTAYLQMNSLRAEDTAVYYCARGAIDYWGQGTLVTVSSGGGGSGGGGSGGGGSDIQMTQSPSSLSASVGDRVTITCRASQSVSSAVAWYQQKPGKAPKLLIYSASSLYSGVPSRFSGSRSGTDFTLTISSLQPEDFATYYCQQWYSSGHVLITFGQGTKVEIK
B4: L1:5:F1:Fc (bispecific antibody)
chain: DVKLVESGGGLVKLGGSLRLSCAASGFSFSTSYMSWVRQTPEKRLELVAAINLNGGSTYYSDTVKGRFTISRDNAKNTLYLQMSSLKSEDTAFYYCASELAGYGTPFAYWGQGTLVTVSAGSAASGSSGGSSSGADIVLTQSPATLSVTPGDSVSLSCKASQSISYNLHWYQQKSHESPRLLIKYTSQSISGIPSRFSGSGSGTDFTLTINNVETEDFGMYFCQQSNSWPLTFGAGTKLEVKGSGSGEVQLVESGGGLVQPGGSLRLSCAASGFTFSHYTLSWVRQAPGKGLEWVSVISGDGSYTYYADSVKGRFTISSDNSKNTLYLQMNSLRAEDTAVYYCARNFIKYVFANWGQGTLVTVSSGGGGSGGGGSGGGGSDIELTQPPSVSVAPGQTARISCSGDNIGSFYVHWYQQKPGQAPVLVIYDKSNRPSGIPERFSGSNSGNTATLTISGTQAEDEADYYCQSYANTLSLVFGGGTKLTVLGSGSGDKTHTCPPCPAPEAAGGPSVFLFPPKPKDTLMISRTPEVTCVVVDVSHEDPEVKFNWYVDGVEVHNAKTKPREEQYNSTYRVVSVLTVLHQDWLNGKEYKCKVSNKALGAPIEKTISKAKGQPREPQVYTLPPSREEMTKNQVSLTCLVKGFYPSDIAVEWESNGQPENNYKTTPPVLDSDGSFFLYSKLTVDKSRWQQGNVFSCSVMHEALHNHYTQKSLSLSPGK
B5: F1:10:L1:Fc (bispecific antibody)
chain: EVQLVESGGGLVQPGGSLRLSCAASGFTFSHYTLSWVRQAPGKGLEWVSVISGDGSYTYYADSVKGRFTISSDNSKNTLYLQMNSLRAEDTAVYYCARNFIKYVFANWGQGTLVTVSSGGGGSGGGGSGGGGSDIELTQPPSVSVAPGQTARISCSGDNIGSFYVHWYQQKPGQAPVLVIYDKSNRPSGIPERFSGSNSGNTATLTISGTQAEDEADYYCQSYANTLSLVFGGGTKLTVLGSGSGGSGSGDVKLVESGGGLVKLGGSLRLSCAASGFSFSTSYMSWVRQTPEKRLELVAAINLNGGSTYYSDTVKGRFTISRDNAKNTLYLQMSSLKSEDTAFYYCASELAGYGTPFAYWGQGTLVTVSAGSAASGSSGGSSSGADIVLTQSPATLSVTPGDSVSLSCKASQSISYNLHWYQQKSHESPRLLIKYTSQSISGIPSRFSGSGSGTDFTLTINNVETEDFGMYFCQQSNSWPLTFGAGTKLEVKGSGSGDKTHTCPPCPAPEAAGGPSVFLFPPKPKDTLMISRTPEVTCVVVDVSHEDPEVKFNWYVDGVEVHNAKTKPREEQYNSTYRVVSVLTVLHQDWLNGKEYKCKVSNKALGAPIEKTISKAKGQPREPQVYTLPPSREEMTKNQVSLTCLVKGFYPSDIAVEWESNGQPENNYKTTPPVLDSDGSFFLYSKLTVDKSRWQQGNVFSCSVMHEALHNHYTQKSLSLSPGK
notes: 2:2 tandem scFv-Fc
B6: F1:15:L1:Fc (bispecific antibody)
chain: EVQLVESGGGLVQPGGSLRLSCAASGFTFSHYTLSWVRQAPGKGLEWVSVISGDGSYTYYADSVKGRFTISSDNSKNTLYLQMNSLRAEDTAVYYCARNFIKYVFANWGQGTLVTVSSGGGGSGGGGSGGGGSDIELTQPPSVSVAPGQTARISCSGDNIGSFYVHWYQQKPGQAPVLVIYDKSNRPSGIPERFSGSNSGNTATLTISGTQAEDEADYYCQSYANTLSLVFGGGTKLTVLGSGSGGSGSGGSSGGDVKLVESGGGLVKLGGSLRLSCAASGFSFSTSYMSWVRQTPEKRLELVAAINLNGGSTYYSDTVKGRFTISRDNAKNTLYLQMSSLKSEDTAFYYCASELAGYGTPFAYWGQGTLVTVSAGSAASGSSGGSSSGADIVLTQSPATLSVTPGDSVSLSCKASQSISYNLHWYQQKSHESPRLLIKYTSQSISGIPSRFSGSGSGTDFTLTINNVETEDFGMYFCQQSNSWPLTFGAGTKLEVKGSGSGDKTHTCPPCPAPEAAGGPSVFLFPPKPKDTLMISRTPEVTCVVVDVSHEDPEVKFNWYVDGVEVHNAKTKPREEQYNSTYRVVSVLTVLHQDWLNGKEYKCKVSNKALGAPIEKTISKAKGQPREPQVYTLPPSREEMTKNQVSLTCLVKGFYPSDIAVEWESNGQPENNYKTTPPVLDSDGSFFLYSKLTVDKSRWQQGNVFSCSVMHEALHNHYTQKSLSLSPGK
notes: 2:2 tandem scFv-Fc
B7: L1:15:F1:Fc (bispecific antibody)
chain: DVKLVESGGGLVKLGGSLRLSCAASGFSFSTSYMSWVRQTPEKRLELVAAINLNGGSTYYSDTVKGRFTISRDNAKNTLYLQMSSLKSEDTAFYYCASELAGYGTPFAYWGQGTLVTVSAGSAASGSSGGSSSGADIVLTQSPATLSVTPGDSVSLSCKASQSISYNLHWYQQKSHESPRLLIKYTSQSISGIPSRFSGSGSGTDFTLTINNVETEDFGMYFCQQSNSWPLTFGAGTKLEVKGSGSGGSGSGGSSGGEVQLVESGGGLVQPGGSLRLSCAASGFTFSHYTLSWVRQAPGKGLEWVSVISGDGSYTYYADSVKGRFTISSDNSKNTLYLQMNSLRAEDTAVYYCARNFIKYVFANWGQGTLVTVSSGGGGSGGGGSGGGGSDIELTQPPSVSVAPGQTARISCSGDNIGSFYVHWYQQKPGQAPVLVIYDKSNRPSGIPERFSGSNSGNTATLTISGTQAEDEADYYCQSYANTLSLVFGGGTKLTVLGSGSGDKTHTCPPCPAPEAAGGPSVFLFPPKPKDTLMISRTPEVTCVVVDVSHEDPEVKFNWYVDGVEVHNAKTKPREEQYNSTYRVVSVLTVLHQDWLNGKEYKCKVSNKALGAPIEKTISKAKGQPREPQVYTLPPSREEMTKNQVSLTCLVKGFYPSDIAVEWESNGQPENNYKTTPPVLDSDGSFFLYSKLTVDKSRWQQGNVFSCSVMHEALHNHYTQKSLSLSPGK
notes: 2:2 tandem scFv-Fc
B8: L1:10:F1:Fc (bispecific antibody)
chain: DVKLVESGGGLVKLGGSLRLSCAASGFSFSTSYMSWVRQTPEKRLELVAAINLNGGSTYYSDTVKGRFTISRDNAKNTLYLQMSSLKSEDTAFYYCASELAGYGTPFAYWGQGTLVTVSAGSAASGSSGGSSSGADIVLTQSPATLSVTPGDSVSLSCKASQSISYNLHWYQQKSHESPRLLIKYTSQSISGIPSRFSGSGSGTDFTLTINNVETEDFGMYFCQQSNSWPLTFGAGTKLEVKGSGSGGSGSGEVQLVESGGGLVQPGGSLRLSCAASGFTFSHYTLSWVRQAPGKGLEWVSVISGDGSYTYYADSVKGRFTISSDNSKNTLYLQMNSLRAEDTAVYYCARNFIKYVFANWGQGTLVTVSSGGGGSGGGGSGGGGSDIELTQPPSVSVAPGQTARISCSGDNIGSFYVHWYQQKPGQAPVLVIYDKSNRPSGIPERFSGSNSGNTATLTISGTQAEDEADYYCQSYANTLSLVFGGGTKLTVLGSGSGDKTHTCPPCPAPEAAGGPSVFLFPPKPKDTLMISRTPEVTCVVVDVSHEDPEVKFNWYVDGVEVHNAKTKPREEQYNSTYRVVSVLTVLHQDWLNGKEYKCKVSNKALGAPIEKTISKAKGQPREPQVYTLPPSREEMTKNQVSLTCLVKGFYPSDIAVEWESNGQPENNYKTTPPVLDSDGSFFLYSKLTVDKSRWQQGNVFSCSVMHEALHNHYTQKSLSLSPGK
notes: 2:2 tandem scFv-Fc
B9: F1:5:L1:Fc (bispecific antibody)
chain: EVQLVESGGGLVQPGGSLRLSCAASGFTFSHYTLSWVRQAPGKGLEWVSVISGDGSYTYYADSVKGRFTISSDNSKNTLYLQMNSLRAEDTAVYYCARNFIKYVFANWGQGTLVTVSSGGGGSGGGGSGGGGSDIELTQPPSVSVAPGQTARISCSGDNIGSFYVHWYQQKPGQAPVLVIYDKSNRPSGIPERFSGSNSGNTATLTISGTQAEDEADYYCQSYANTLSLVFGGGTKLTVLGSGSGDVKLVESGGGLVKLGGSLRLSCAASGFSFSTSYMSWVRQTPEKRLELVAAINLNGGSTYYSDTVKGRFTISRDNAKNTLYLQMSSLKSEDTAFYYCASELAGYGTPFAYWGQGTLVTVSAGSAASGSSGGSSSGADIVLTQSPATLSVTPGDSVSLSCKASQSISYNLHWYQQKSHESPRLLIKYTSQSISGIPSRFSGSGSGTDFTLTINNVETEDFGMYFCQQSNSWPLTFGAGTKLEVKGSGSGDKTHTCPPCPAPEAAGGPSVFLFPPKPKDTLMISRTPEVTCVVVDVSHEDPEVKFNWYVDGVEVHNAKTKPREEQYNSTYRVVSVLTVLHQDWLNGKEYKCKVSNKALGAPIEKTISKAKGQPREPQVYTLPPSREEMTKNQVSLTCLVKGFYPSDIAVEWESNGQPENNYKTTPPVLDSDGSFFLYSKLTVDKSRWQQGNVFSCSVMHEALHNHYTQKSLSLSPGK
notes: 2:2 tandem scFv-Fc

Target: FZD7 (UniProt O75084 44-163)
Assay: column 'Specificity (Clone name)' of the component table; method not given there

Binding result, binds:
B1
B2

Target: T1, FZD5
Assay: as above

Binding result, binds:
B3
B1

Target: T2, LRP6E1E2
Assay: BLI (Octet), FIG. 11B

Binding result, binds:
B4
B5
B6
B7
B8
B9
